From publication PMC12520249 (Nature, 2025) come the findings set out here.

The series deals with the molecule itself. Briefly: cryo-EM structure.

B1: hGluD2(R710W), human GluD2 with the cerebellar ataxia mutation R710W (receptor, UniProt O43424-1 24-1007, looked up)
chain: DSIIHIGAIFDESAKKDDEVFRTAVGDLNQNEEILQTEKITFSVTFVDGNNPFQAVQEACELMNQGILALVSSIGCTSAGSLQSLADAMHIPHLFIQRSTAGTPRSGCGLTRSNRNDDYTLSVRPPVYLHDVILRVVTEYAWQKFIIFYDSEYDIRGIQEFLDKVSQQGMDVALQKVENNINKMITTLFDTMRIEELNRYRDTLRRAILVMNPATAKSFITEVVETNLVAFDCHWIIINEEINDVDVQELVRRSIGRLTIIRQTFPVPQNISQRCFRGNHRISSTLCDPKDPFAQNMEISNLYIYDTVLLLANAFHKKLEDRKWHSMASLSCIRKNSKPWQGGRSMLETIKKGGVSGLTGELEFGENGGNPNVHFEILGTNYGEELGRGVRKLGCWNPVTGLNGSLTDKKLENNMRGVVLRVVTVLEEPFVMVSENVLGKPKKYQGFSIDVLDALSNYLGFNYEIYVAPDHKYGSPQEDGTWNGLVGELVFKRADIGISALTITPDRENVVDFTTRYMDYSVGVLLRRAEKTVDMFACLAPFDLSLWACIAGTVLLVGLLVYLLNWLNPPRLQMGSMTSTTLYNSMWFVYGSFVQQGGEVPYTTLATRMMMGAWWLFALIVISSYTANLAAFLTITRIESSIQSLQDLSKQTEIPYGTVLDSAVYEHVRMKGLNPFERDSMYSQMWWMINRSNGSENNVLESQAGIQKVKYGNYAFVWDAAVLEYVAINDPDCSFYTIGNTVADRGYGIALQHGSPYRDVFSQRILELQQNGDMDILKHKWWPKNGQCDLYSSVDTKQKGGALDIKSFAGVFCILAAGIVLSCFIAMLETWWNKRKGSRVPSKEDDKEIDLEHLHRRVNSLCTDDDSPHKQFSTSSIDLTPLDIDTLPTRQALEQISDFRNTHITTTTFIPEQIQTLSRTLSAKAASGFTFGNVPEHRTGPFRHRAPNGGFFRSPIKTMSSIPYQPTPTLGLNLGNDPDRGTSI
Take B1: the binding result is on record as “binds”.

B2: hGluD2(ΔATD), human GluD2 with the amino-terminal domain deleted (receptor, UniProt O43424-1 24-1007, looked up)
chain: DSIDKKLENNMRGVVLRVVTVLEEPFVMVSENVLGKPKKYQGFSIDVLDALSNYLGFNYEIYVAPDHKYGSPQEDGTWNGLVGELVFKRADIGISALTITPDRENVVDFTTRYMDYSVGVLLRRAEKTVDMFACLAPFDLSLWACIAGTVLLVGLLVYLLNWLNPPRLQMGSMTSTTLYNSMWFVYGSFVQQGGEVPYTTLATRMMMGAWWLFALIVISSYTANLAAFLTITRIESSIQSLQDLSKQTEIPYGTVLDSAVYEHVRMKGLNPFERDSMYSQMWRMINRSNGSENNVLESQAGIQKVKYGNYAFVWDAAVLEYVAINDPDCSFYTIGNTVADRGYGIALQHGSPYRDVFSQRILELQQNGDMDILKHKWWPKNGQCDLYSSVDTKQKGGALDIKSFAGVFCILAAGIVLSCFIAMLETWWNKRKGSRVPSKEDDKEIDLEHLHRRVNSLCTDDDSPHKQFSTSSIDLTPLDIDTLPTRQALEQISDFRNTHITTTTFIPEQIQTLSRTLSAKAASGFTFGNVPEHRTGPFRHRAPNGGFFRSPIKTMSSIPYQPTPTLGLNLGNDPDRGTSI
Take B2: the binding result was “binds”.
